First the molecules themselves.
B1: wild-type recombinant mouse glutaminase C (GAC), residues 73-603, unlabeled (enzyme)
chain: SSSPSEILQELGKGGTPPQQQQQQQQQPGASPPAAPGPKDSPGETDAFGNSEGKEMVAAGDNKIKQGLLPSLEDLLFYTIAEGQEKIPVHKFITALKSTGLRTSDPRLKECMDMLRLTLQTTSDGVMLDKDLFKKCVQSNIVLLTQAFRRKFVIPDFMSFTSHIDELYESAKKQSGGKVADYIPQLAKFSPDLWGVSVCTVDGQRHSIGDTKVPFCLQSCVKPLKYAIAVNDLGTEYVHRYVGKEPSGLRFNKLFLNEDDKPHNPMVNAGAIVVTSLIKQGVNNAEKFDYVMQFLNKMAGNEYVGFSNATFQSERESGDRNFAIGYYLKEKKCFPEGTDMVGILDFYFQLCSIEVTCESASVMAATLANGGFCPITGERVLSPEAVRNTLSLMHSCGMYDFSGQFAFHVGLPAKSGVAGGILLVVPNVMGMMCWSPPLDKMGNSVKGIHFCHDLVSLCNFHNYDNLRHFAKKLDPRREGGDQRHSFGPLDYESLQQELALKDTVWKKVSPESSDDTSTTVVYRMESLGERS
notes: one subunit is described; also called WT GAC; unlabeled GAC; not shown: N-terminal His tag and thrombin cleavage site from pET28a
B2: mouse GAC F327W,D391K double mutant (residues 73-603) (enzyme)
chain: B1 chain with F255W, D319K
notes: Found as a dimer by SEC-MALS; also called GAC double mutant; dimeric GACF327W,D391K double mutant; not shown: N-terminal His tag and thrombin cleavage site from pET28a
B3: QSY9-labeled recombinant mouse GAC (FRET acceptor) (enzyme)
chain: B1 chain
modifications: labeled with QSY9 succinimidyl ester (sites not given)
notes: also called QSY9-GAC; QSY9-labeled GAC; not shown: N-terminal His tag and thrombin cleavage site from pET28a
B4: Alexa Fluor 488-labeled recombinant mouse GAC (FRET donor) (enzyme)
chain: B1 chain
modifications: labeled with Alexa Fluor 488 succinimidyl ester (sites not given)
notes: not shown: N-terminal His tag and thrombin cleavage site from pET28a
B5: mouse GAC F327W mutant (residues 73-603) (enzyme)
chain: B1 chain with F255W
notes: as for B4

Data set [1] concerns the target B4. In words: FRET exchange (competition): excess unlabeled GAC added to preformed 488-labeled GAC / QSY9-GAC complexes; displaced competitor is QSY9-GAC; with or without 100 mM phosphate or sulfate [panel A].
Data set [2] concerns the molecule itself. In words: SEC-MALS of 5 mg/ml protein, self-association (dimer/tetramer), without and after preincubation with BPTES; MW on a log axis [panel C]. From the text:
(§1) LS=light scattering; MW=molecular weight. […] Points represent the mean and error bars the standard deviation of three independent experiments.
On the technique in general: In gel filtration, larger molecules generally elute earlier.

For data set [3], the target named is B3. Nature of the data set: FRET, exchange with excess unlabeled GAC.
Data set [4] concerns the molecule itself. In words: SEC-MALS of 5 mg/ml protein, self-association, without and after preincubation with BPTES; MW on a log axis [panel B]. From the text: LS=light scattering; MW=molecular weight.
The target of data set [5] is B4. In words: FRET time trace: 25 nM 488-labeled GAC (donor) + 75 nM QSY9-GAC (acceptor); 100 mM phosphate, sulfate or water added at 10 min [panel A].
The target of data set [6] is B3. In words: FRET, self-association of labeled GAC in solution.
Data set [7] deals with the molecule itself. In words: SEC-MALS of 5 mg/ml protein, self-association (dimer/tetramer), without and after preincubation with BPTES; MW on a log axis [panel D].
Source text: as §1

Substitutions are numbered along the chain they refer to. Names and notes keep the numbering of the source.

Regarding B1, the “Specific activity of WT GAC without phosphate (mol Glu/min mol GAC), against [GAC]” value is “specific activity (triangles, left axis) rises with [GAC] from about 90 at about 85 nM through about 400 at about 430 nM to about 500 at about 1000-1500 nM, flattening; no lower plateau inside the range (linear axis)”. In data set [1], the binding result is recorded as “binds”. Besides, in data set [2], the binding result was “binds”. Besides, in data set [3], the binding result is “binds”. In the case of B2, in data set [4], the binding result is on record as “binds”. As to B3, in data set [5], the binding result is reported as “binds”. Turning to B4, the binding result in data set [6] is recorded as “binds”.

As to B5, the binding result in data set [7] is reported as “binds”.

The values are drawn from US20180100178A1 (CORNELL UNIVERSITY, published 2018).
